These are literature values, as cited in publication PMC12732943.

The series concerns the target Fibrin (Homo sapiens) (UniProt P02671).

pKd: −log10 of the molar value.

For GPVI (monomeric) (from UniProt Q9HCN6), the negative-log Kd (pKd) was 6.52.
